One data set addresses T1, IDP2 (Arabidopsis thaliana, UniProt F4JH53 1-635).
T1 sequence: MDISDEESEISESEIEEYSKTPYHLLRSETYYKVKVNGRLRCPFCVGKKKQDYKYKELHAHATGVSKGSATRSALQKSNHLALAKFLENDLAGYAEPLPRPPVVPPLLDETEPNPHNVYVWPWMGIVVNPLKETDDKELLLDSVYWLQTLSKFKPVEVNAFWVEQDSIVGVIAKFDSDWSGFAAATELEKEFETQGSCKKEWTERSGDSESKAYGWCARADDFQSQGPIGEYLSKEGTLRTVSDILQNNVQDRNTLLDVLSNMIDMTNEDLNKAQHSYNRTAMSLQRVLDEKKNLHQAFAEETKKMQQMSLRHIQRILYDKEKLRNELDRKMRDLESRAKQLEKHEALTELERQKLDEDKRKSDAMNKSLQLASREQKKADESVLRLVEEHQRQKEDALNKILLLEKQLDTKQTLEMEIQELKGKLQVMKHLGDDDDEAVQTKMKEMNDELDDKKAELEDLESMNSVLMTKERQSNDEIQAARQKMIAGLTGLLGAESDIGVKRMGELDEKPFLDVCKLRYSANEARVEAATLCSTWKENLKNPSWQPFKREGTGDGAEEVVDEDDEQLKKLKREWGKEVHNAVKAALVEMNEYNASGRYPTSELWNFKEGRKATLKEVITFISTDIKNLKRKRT
Briefly: EMSA; 12.5 mM MgCl2; up to 6.4 ug protein; 25 mM HEPES pH 7.6, 50 mM KCl, 0.1 mM EDTA, 12.5 mM MgCl2, 1 mM DTT, 0.5% BSA, 5% glycerol, 2 ug protein, room temperature 30 min; 4% native PAGE. The following applies: protein: recombinant, tags: His (pET28a), label: 5'-32P. On the technique in general: A gel shift assay detects complexes by their altered migration in electrophoresis.

The target in the next data set is T2, IDP1 (Arabidopsis thaliana, UniProt Q9S9P3 1-634).
T2 sequence: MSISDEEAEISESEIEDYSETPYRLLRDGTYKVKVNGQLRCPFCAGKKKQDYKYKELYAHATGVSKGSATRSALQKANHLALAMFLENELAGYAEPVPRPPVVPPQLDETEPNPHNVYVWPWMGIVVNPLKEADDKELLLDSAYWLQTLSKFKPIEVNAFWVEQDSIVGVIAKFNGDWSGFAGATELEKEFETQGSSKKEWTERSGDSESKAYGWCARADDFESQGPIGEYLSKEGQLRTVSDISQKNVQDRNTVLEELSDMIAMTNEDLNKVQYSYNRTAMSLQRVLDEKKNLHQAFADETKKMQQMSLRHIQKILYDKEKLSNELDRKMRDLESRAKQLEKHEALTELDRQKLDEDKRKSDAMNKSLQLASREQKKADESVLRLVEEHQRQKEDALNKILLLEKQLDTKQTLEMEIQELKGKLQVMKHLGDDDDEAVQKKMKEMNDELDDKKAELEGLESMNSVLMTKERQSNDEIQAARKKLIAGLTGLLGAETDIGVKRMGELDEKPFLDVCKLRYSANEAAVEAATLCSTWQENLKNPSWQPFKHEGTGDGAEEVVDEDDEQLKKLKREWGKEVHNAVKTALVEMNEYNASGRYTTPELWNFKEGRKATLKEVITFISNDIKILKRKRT
The description is as above. The following applies: protein: recombinant, tags: His (pET28a), label: 5'-32P.

A further data set has as its target T3, IDN2 (Arabidopsis thaliana, UniProt Q8VZ79 1-647).
T3 sequence: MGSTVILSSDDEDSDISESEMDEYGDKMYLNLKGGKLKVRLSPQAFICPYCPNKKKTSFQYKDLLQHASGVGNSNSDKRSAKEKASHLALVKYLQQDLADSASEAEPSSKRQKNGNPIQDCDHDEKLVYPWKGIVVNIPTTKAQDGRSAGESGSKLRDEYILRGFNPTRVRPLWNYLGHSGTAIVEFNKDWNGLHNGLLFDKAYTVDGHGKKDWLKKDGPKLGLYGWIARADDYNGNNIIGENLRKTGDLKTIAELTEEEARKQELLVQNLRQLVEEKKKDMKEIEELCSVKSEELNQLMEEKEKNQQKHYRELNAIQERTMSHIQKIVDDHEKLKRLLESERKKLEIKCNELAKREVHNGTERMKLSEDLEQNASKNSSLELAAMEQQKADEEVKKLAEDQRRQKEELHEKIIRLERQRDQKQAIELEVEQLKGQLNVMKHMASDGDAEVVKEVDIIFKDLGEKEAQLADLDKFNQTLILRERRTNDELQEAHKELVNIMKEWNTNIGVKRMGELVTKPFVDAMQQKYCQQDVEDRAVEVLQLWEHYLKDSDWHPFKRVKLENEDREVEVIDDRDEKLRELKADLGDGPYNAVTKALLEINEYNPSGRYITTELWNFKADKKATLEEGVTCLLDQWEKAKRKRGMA
Put plainly: EMSA; 12.5 mM MgCl2; 25 mM HEPES pH 7.6, 50 mM KCl, 0.1 mM EDTA, 12.5 mM MgCl2, 1 mM DTT, 0.5% BSA, 5% glycerol, 2 ug protein, room temperature 30 min; 4% native PAGE. The following applies: protein: recombinant, tags: His (pET28a), label: 5'-32P.

Another data set concerns the target T4, IDN2-a (XS+coiled-coil) (Arabidopsis thaliana, UniProt Q8VZ79 1-511).
T4 sequence: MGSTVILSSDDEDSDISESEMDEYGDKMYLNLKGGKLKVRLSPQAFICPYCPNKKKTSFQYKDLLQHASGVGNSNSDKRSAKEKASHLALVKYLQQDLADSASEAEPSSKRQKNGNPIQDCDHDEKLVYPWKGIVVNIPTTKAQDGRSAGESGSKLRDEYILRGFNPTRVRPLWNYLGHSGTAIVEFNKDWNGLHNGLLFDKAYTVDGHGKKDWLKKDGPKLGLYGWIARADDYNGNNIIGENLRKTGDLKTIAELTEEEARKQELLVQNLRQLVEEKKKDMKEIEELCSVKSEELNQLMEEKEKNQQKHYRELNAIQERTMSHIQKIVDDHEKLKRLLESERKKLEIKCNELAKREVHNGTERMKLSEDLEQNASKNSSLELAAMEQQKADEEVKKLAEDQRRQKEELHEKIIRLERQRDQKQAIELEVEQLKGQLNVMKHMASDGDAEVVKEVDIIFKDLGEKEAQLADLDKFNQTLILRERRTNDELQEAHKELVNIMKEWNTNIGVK
The data set is described as above. The following applies: protein: recombinant, tags: His (pET30a), label: 5'-32P.

B1: RD29A dsRNA, 5' overhang (dsRNA)
RNA 1: ACGCUUCAUACGUGUCCCUUUAUCUCUCUCAGUCU
RNA 2: AGAGACUGAGAGAGAUAAAGGGACACGUAUGAAGC
Consider B1, for which the binding result in the data set with IDP2 (5' overhangs 2 nt at both ends) is reported as “no binding”; in the data set with IDP1 (5' overhangs 2 nt at both ends), “no binding”; with IDN2 (5' overhangs 2 nt at both ends), “binds”; with IDN2-a (XS+coiled-coil) (5' overhangs 2 nt at both ends) it was “binds”.

B2: RD29A dsRNA, blunt (dsRNA)
RNA 1: B1 RNA 1
RNA 2: AGACUGAGAGAGAUAAAGGGACACGUAUGAAGCGU
On to B2, for which the binding result with IDP2 (blunt) is listed as “no binding”; with IDP1 (blunt), “no binding”; in the data set with IDN2 (blunt) it was “binds”; with IDN2-a (XS+coiled-coil) (blunt) it was “binds”.

These data come from PMC3342958, “IDN2 and Its Paralogs Form a Complex Required for RNA–Directed DNA Methylation”.
